The source of these data is a protein production outcome set (Wang et al. 2014).

The nature of this data set: label from the status in PepcDB records.
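Also: failed if final PepcDB status was selected cloned or expressed and not failed if soluble or beyond.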

Turning to “SRPATPPVTPPSREGHVADLDRFPQDLRVYAMKAGADRQLLPFTEQAAQDARWNRRFFAPWRMTRISVPVKDVAAPFGTDGRPRGYAENLLPWDVTRWGALASGAALDLYPSQAWKGIVVSNSALREVPTLRPMFTAPTRAGQGYPFDMFQRTAVWMGTPVFVGHATADRAWLYVETAFAAGWMPAADVARVDDAFMTRYESGSLAAILRDDTSLNGADGTHLATAHIGTVLPLSGASQVGRTVLVPVRAPEGHAVVVPVLLTSGEAAQKPVPLTPGNMAELGNRMMGQPYGWGGLYEDRDCSSTLRDLFTPFGLWLPRNSASQAKAGRYVDIAKLDADDKEARIVAEGVPFMTLLWLRGHITLYLGLHEGQAAMFHNMWGIRTHRGGVEGRYVLGRAVVTSTRPGLDVPGNDNADGLLGRMQGMSILPGGAQ”, the protein production entry is recorded as “not failed”. Under “SSAHMSGLEIMDEDQLIKDVLDKFLNCHEQTYDEEFLNTFTHLSQDLLLLPGEVEQDVSTSIPSCIPFVAQPPTCEVKPKPSVKRMDKQTEEILGDEVQLFSLDEEFDYDNVMLTSKFSPAEIENIKELCKQQKRKDTSPDLEKSCD” stands “failed”; under “SSANEDQEMELEALRSIYEGDESFRELSPVSFQYRIGENGDPKAFLIEISWTETYPQTPPILSMNAFFNNTISSAVKQSILAKLQEAVEANLGTAMTYTLFEYAKDNKEQFMENHNPINSATSISNIISIETPNTAPSSKKKDKKEQLSKAQKRKLADKTDHKGELPRGWNWVDVVKHLSKTGSKDDE”, “failed”. Under “SSEAKKGHVLFFPYPLQGHINPMIQLAKRLSKKGITSTLIIASKDHREPYTSDDYSITVHTIHDGFFPHEHPHAKFVDLDRFHNSTSRSLTDFISSAKLSDNPPKALIYDPFMPFALDIAKDLDLYVVAYFTQPWLASLVYYHINEGTYDVPVDRHENPTLASFPGFPLLSQDDLPSFACEKGSYPLLHEFVVRQFSNLLQADCILCNTFDQLEPKVVKWMNDQWPVKNIGPVVPSKFLDNRLPEDKDYELENSKTEPDESVLKWLGNRPAKSVVYVAFGTLVALSEKQMKEIAMAISQTGYHFLWSVRESERSKLPSGFIEEAEEKDSGLVAKWVPQLEVLAHESIGCFVSHCGWNSTLEALCLGVPMVGVPQWTDQPTNAKFIEDVWKIGVRVRTDGEGLSSKEEIARCIVEVMEGERGKEIRKNVEKLKVLAREAISEGGSSDKKIDEFVALLT” stands “failed”; under “SSGVIAFDEGFRVTTVNQGAQTILQADLRSVIGRPLETVDGMLEFAQVVRQAFAAHAAVGSERLHWQQQFEITPGLDETGGQPVTLLARGTHLRVD”, “failed”; under “SSISQQTIAETDGDSAGSDSFPVGRTHHRWYLCHFGQSLIHVIQVVIGYFIMLAVMSYNTWIFLGVVLGSAVGYYLAYPLLSTA”, “failed”.

Turning to “SSKELLMKLRRKTGYSFVNCKKALETCGGDLKQAEIWLHKEAQKEGWSKAA”, the protein production result is recorded as “not failed”.

For “SSSSCTVTTGTLGFGDKFKRPIGSWECSVCCVSNNAEDNKCVSCMSEKPG”, the protein production result is on record as “not failed”.

For “STGESSSVSERGSLKQQLREYIRWEEAARNLLGLIEAKENRNHQPPQPKALGNQQPSWDSEDSSNFKD”, the protein production result is “failed”. For “STGNGWFAGFPIFSWYFGRDGLWMGLAANTVGMSHLTREHMRTLLIYSKDGRIPHEIGLSNDGMQSYSISDRIFNTMYMSIDSSLLWLLSNKSLENWESKGFEHDNVTRVFKFASSCDSDGDGLLENNFSDGLIGWPETWANIRNGKAVDINALWVKTVELYSNELNIANAEELKKKYLESFFSNVSFTDFIDNSGYAKSVKSAMQFVPGIFFTNNNIVETIKQLAEGNLTPWGVRSVSVDDPMFDGGYHTGTVWPLMTGWFVLSAYKNGLKDIAFKQLMTFSELAFSSPDLGRINETYDSMIANPTGQFAQGWSSSMLVLSVMQGLLGIDSIEF” the value was “failed”; for “STIIYIKDLNGRYTLVNNKYCEVLGIERRKIIGAMDFELFQPPLAELYQQNDQRANNSHDALHFEEPIPTPRGEIIYHMTKFDIRDDE”, “failed”. For “STTEEESLSAAEEGYNVQRDYWRQAEESDGFDIENIKLPPGMHGRVMGLITYNCQLCYRYPFPVLVKLYAKFGLHRYNLIKGTSFELAALMKFNMLQNYMSSFYMTLLAHDPDPAASSSQKTFQVRVDEQQFGTLGINCSIARPKHEGDLLEVSTKTPFIPHFHGGALGDGIFKGELPDCLSDDALNALMEAVSKDELPEHVLDDALYARAGGIFQGELPDWPSDDALNDGKRFYMLKESEWQATDWISMYLELVITTTDRSITEPEVLSKLEIVKVAIETATKDEEPSNERLKAYRAHFYITFKGLAEPRAPRQVFEIGEHVERQAIVRRVMGHRGDLTLKGKLCGGQYIKRRSLALKSGEESPNCKKQTRVG” the value was “failed”; for “SVQEAPAALPTEPGPSPVPAFLGKLWALVGDPGTDHLIRWSPSGTSFLVSDQSRFAKEVLPQYFKHSNMASFVRQLNMYGFRKVVSIEQGGLLRPERDHVEFQHPSFVRGREQLLERVRRKVPALRGDDGRWRPEDLGRLLGEVQALRGVQESTEARLRELRQQNEILWREVVTLRQSHGQQHRVIGKLIQCLFGPLQAGPSNAGGKRKLSLMLDEGSSCPTPAKFNTCPLPGALLQDPYFIQSPLPETNLGLSPHRARGPIISDIPEDSPSPEGTRLSPSSDGRREKGLALLKEEPASPGGDGEAGLALAPNECDFCVTAPPPLPVAVVQAILEGKGSFSPEGPRNAQQPEPGDPREIPDRGPLGLESGDRSPESLLPPMLLQPPQESVEPAGPLDVLGPSLQGREWTLMDLDMELSLMQPLVPERGEPELAVKGLNSPSPGKDPTLGAPLLLDVQAALGGPALGLPGALTIYSTPESRTASYLGPEASPSP”, “not failed”. Under “SVSAGVQAVESILDREEIRRVILVGAGTGAGVALEIAKNQPRRVERLVLDSPLVTFDEKQLKGMSTALKMMPGFFFRKKNKKDLLQQVEEARTAVPMGFSEITMPTLIIRGSAAKAGIDSDLEKQIPSARATTIIGANWLTYTTHGRQTGAAIAEFLAQ” stands “failed”. “SVVAKVKIPEGTILTMDMLTVKVGEPKGYPPEDIFNLVGKKVLVTVEEDDTIMEELVDNHGKKIKS”: the protein production entry is “not failed”. Under “SYDYQSAFDIIGPVMMGPSSSHTAGAVKIGNSARAVLGDMPKHIEIRYYESFAKTHQGHGTDVAIVGGAMGYSTFDSRIKSSLDIAKDENITIDIIEDEGESIGQHPNCAYIKANTKDGRYIEVIGISIGGGTIKLKGINVNGLNVELNHG” stands “failed”; under “TARLVAGLEDVQVYDGEDAVFSLDLSTIIQGTWFLNGEELKSNEPEGQVEPGALRYRIEQKGLQHRLILHAVKHQDSGALVGFSCPGVQDSAALTIQES”, “not failed”; under “TDDEEKDNNGQGSVSVETNYLPIADPYVMFYNNKYYAYGTGGTTAGEGFACFSSDDLKNWKREGQALSATDSYGTWGFWAPEVYYVESKKKFYLFYSAEEHICVATSTTPEGPFRQEVKQPIWSEKSIDTSLFIDDDGTPYLYFVRFTDGNVIWVAQMTDDLMSIKTETLNQCIKAEVSWELLQGKVAEGPSLLKKNGVYYLIYSANHYENKGYGVGYATSDTPMGPWVKYSKNPLLQGDAATGLVGTGHGAPFQCKDGSWKYIFHAHWSAAEIQPRTSYIKDFAISDQGVVTISGTVIKPRVLK”, “not failed”.

As for “THSVETPYGSVTFTVYGTPKPKRPAIFTYHDVGLNYKSCFQPLFRFGDMQEIIQNFVRVHVDAPGMEEGAPVFPLGYQYPSLDQLADMIPCILQYLNFSTIIGVGVGAGAYILSRYALNHPDTVEGLVLINIDPNAKGWMDWAAHKLTGLTSSIPDMILGHLFSQEELSGNSELIQKYRGIIQHAPNLENIELYWNSYNNRRDLNFERGGETTLKCPVMLVVGDQAPHEDAVVECNSKLDPTQTSFLKMADSGGQPQLTQPGKLTEAFKYFLQG”, the protein production entry is “not failed”.

For “TIATSGKLNWGIRESFNNYTNGASKVEDGATLISTNNFEFKLEKATYDAAKERTEAQFRGKIVYLKYCDDMKTFTNCQLDLTIKDPKIVISNEENYVEAVVDSKQYPSGEWYKSNGPVKIANLYPGSATVDSKDNSTEWTNVVSALANPGGVKMFSEFYGENEGLAPLSFSYDG”, the protein production result is given as “failed”. For “TIDIDLQKEVEALLDKQIKKLRSQGAKDMDNAMMVVQNPKNGDILALAGKQINKSGKMTDYDIGTFTSQFAVGSSVKGGTLLAGYQNKAIKVGETMVDEPLHFQGGLTKRSYFNKNGHVSINDKQALMHSSNVYMFKTALKLAGDPYYSGMALPSDISSPAQKLRRGLNQVGLGVKTGIDLPNETRGQIEPLTNNPGNYLDLSIGQYDTYTPLQLSQYVSTIANDGYRIQPHIGLTIHESTNKDEVGPLKKKINGTVLNKVNNTEKEIKQIQEGFKMAFNDKDGTGYVSFKDTVVPTAGKTGTAEVFQNGEPRVNSTYIGYAPIDDPKLAFSIVYTNQPVPPPWLTGGDLGRDVINYYFKQLGKDDK” the value was “failed”; for “TIDSNFQNKVDEILQRNYSQIVKTIGPYSENAYVVAMNPQTGAILAMSGFHHDLATGEVTPNPLAPILNSEVPGSVVKAGTLTAGYETGVIKGNDVLTDEAILLAGSNPKASWWNASGGTTMQLTAEQALEYSSNAYMMKLVFKMMGVNYYPNMIFPYEVGDDTVFKELRKAFAEYGMGTKTGIDIPGETTGIQNKDFKDSSSAPQGGNLLDLSFGQYDTYSALQLAQYVSTVANNGIRVQPHVVEGIYGNDENGALGKILKEIEPKVLNKVNISEDQIGILQQGFYNVVNGTSPFTTARGLKSDKFSIAAKTGTAETQATDANGVNHTTVNSNLVAYAPYENPEIAISVVLPHLNDEASKPNQTIAKEVLEAYMEMYKK”, “failed”.

In the case of “TLLLIFSFFVVTIGGLVQIVPLFYLENTIEKVEGVRPYTPLELAGRDIYIREGCYVCHSQMIRPMRDETERYGHYSLAAESMYDHPFQWGSKRTGPDLARVGERYSDEWHVDHLTNPQSVVPESIMPKYGFLSHTVIDGRYIRDLMSVHRIVGVPYSDEMLENAVADFKAQANPDADTDGLLERYGKAAVRNFDGQAELTEMDALISYLQVLGT”, the protein production entry is on record as “failed”.

Regarding “TMNNEMSDPQIEEFYTIVKELEKFDTFTNFLDVHQPELAIVFGRTKRRVDELTSALISKGYKAEGLHGDITQAKRLEVLKKFKNDQINILVATDVAARGLDISGVSHVYNFDIPQDTESYTHRIGRTGRAGKEGIAVTFVNPIEMDYIRQIEDANGRKMSALRPPHRKEVLQAREDDIKEKVENWMSKESESRLKRISTELLNEYNDVDLVAALLQELVEANDEVEVQLTFEKPLSRKGRNGKPSGSR”, the protein production result was “failed”. “TNLAALSLDSLVAPDTPIQFDIISPVCEDQPGQAKAFGQGGRRTNPFGESGGSTKSETEDSILHQLFIVRFLGSMEVKSDDHPDVVYETMRQILAARAIHNIFRMTESHLLVTCDCLKLIDPQTQVTRLTFPLPCVVLYATHQENKRLFGFVLRTSSGRSESNLSSVCYIFESNNEGEKICDSVGLAKQIAL”: the protein production entry is on record as “failed”. As for “TNWASGEDDHVVARAEYDFVAVSDEEISFRAGDMLNLALKEQQPKVRGWLLASLDGQTTGLIPANYVKILGKRRGRKTIE”, the protein production result is on record as “not failed”.

In the case of “TPAVVERADADSQYEILVGGQRAGLTAYRDLGAQRVFFHTEIDEAFAGQGLASQLVQQALVDVRASGMRIVPVCPYVAKFLKRHDEFADITDPVTPEVLRW”, the protein production entry is recorded as “not failed”. On to “TRKVLVLDLDNTLWGGVIGDDGIEGIVIGEGSARGEAFKAFQLYCRALRERGILLAVSSKNDPERALAAFDHPEMVLRRSDFAAFVANWEDKGQGLQRIAQELNLGLEALVFFDDNPAERALLREQFPAVAVPEVPEEPETYIRCLAAAGLFEAV”, for which the protein production entry is on record as “failed”.

As for “TTQNELLNRIAELETKVAFQDNVIEELNQVLIHHQFVLDKLQTQVRHFANKFKNIQSSNVASQAEETPPPHY”, the protein production entry is on record as “failed”.
